According to paper PMC10628234:

Legend:
[1] = target: T1, CbFic2 (Coxiella burnetii, UniProt Q83DB6 1-378); assay: fluorescence anisotropy; Hill 1.354; conditions: protein: recombinant; tags: N-terminal G-H-M remnant after TEV cleavage; label: 5'-FITC on one strand
[2] = target: TS-CbFic2 (Coxiella burnetii, UniProt Q83DB6 1-378); assay: fluorescence anisotropy; Hill 1.082; conditions: protein: recombinant; tags: N-terminal Twin-Strep + EK site (G-H-M-TS-G-A-EK-H-M); label: 5'-FITC on one strand
[3] = target: T1, CbFic2; assay: circular dichroism; conditions: protein: recombinant; tags: N-terminal G-H-M remnant after TEV cleavage; blunt, self-complementary, 2 copies
[4] = target: T1, CbFic2; assay: fluorescence anisotropy; Hill 0.772; conditions: protein: recombinant; tags: N-terminal G-H-M remnant after TEV cleavage; label: 5'-FITC on one strand
[5] = target: T1, CbFic2; assay: fluorescence anisotropy; Hill 0.988; conditions: protein: recombinant; tags: N-terminal G-H-M remnant after TEV cleavage; label: 5'-FITC on one strand

B1: 5'-FITC 20 bp dsDNA (40% GC) (dsDNA)
DNA 1: AGTTTAGTGCGCTAATCTGA
DNA 2: TCAGATTAGCGCACTAAACT
Work on B1 yielded a Kd [1] of 220 nM and a Kd [2] of 116 nM.

B2: d(CG)10 duplex, 100% GC (dsDNA)
DNA 1: CGCGCGCGCGCGCGCGCGCG
DNA 2: CGCGCGCGCGCGCGCGCGCG
B2: binds [3].

B3: 5'-FITC 40 bp dsDNA (dsDNA)
DNA 1: TTGATTACCGTCAGTTGGAGCCCATATTATACATGAAGAC
DNA 2: GTCTTCATGTATAATATGGGCTCCAACTGACGGTAATCAA
In the case of B3, the Kd [4] is reported as 108 nM.

B4: 5'-FITC 60 bp dsDNA (dsDNA)
DNA 1: TCACTCAAGAAGCAGACACAGTAAGACACGGTTTAGCTGATTGTTTATCGATTAGGTCAA
DNA 2: TTGACCTAATCGATAAACAATCAGCTAAACCGTGTCTTACTGTGTCTGCTTCTTGAGTGA
B4 gave a Kd [5] of 36.5 nM.
